Data reported in patent US20040014658A1.

How the values were obtained:
Test in all cases: cell-based or functional assay
FGF Receptor 1 = molecular target: FGF Receptor 1
FGF Receptor 2 = molecular target: FGF Receptor 2
FGF Receptor 3 = molecular target: FGF Receptor 3
Sequence of FGF Receptor 3 (P22607 23-806): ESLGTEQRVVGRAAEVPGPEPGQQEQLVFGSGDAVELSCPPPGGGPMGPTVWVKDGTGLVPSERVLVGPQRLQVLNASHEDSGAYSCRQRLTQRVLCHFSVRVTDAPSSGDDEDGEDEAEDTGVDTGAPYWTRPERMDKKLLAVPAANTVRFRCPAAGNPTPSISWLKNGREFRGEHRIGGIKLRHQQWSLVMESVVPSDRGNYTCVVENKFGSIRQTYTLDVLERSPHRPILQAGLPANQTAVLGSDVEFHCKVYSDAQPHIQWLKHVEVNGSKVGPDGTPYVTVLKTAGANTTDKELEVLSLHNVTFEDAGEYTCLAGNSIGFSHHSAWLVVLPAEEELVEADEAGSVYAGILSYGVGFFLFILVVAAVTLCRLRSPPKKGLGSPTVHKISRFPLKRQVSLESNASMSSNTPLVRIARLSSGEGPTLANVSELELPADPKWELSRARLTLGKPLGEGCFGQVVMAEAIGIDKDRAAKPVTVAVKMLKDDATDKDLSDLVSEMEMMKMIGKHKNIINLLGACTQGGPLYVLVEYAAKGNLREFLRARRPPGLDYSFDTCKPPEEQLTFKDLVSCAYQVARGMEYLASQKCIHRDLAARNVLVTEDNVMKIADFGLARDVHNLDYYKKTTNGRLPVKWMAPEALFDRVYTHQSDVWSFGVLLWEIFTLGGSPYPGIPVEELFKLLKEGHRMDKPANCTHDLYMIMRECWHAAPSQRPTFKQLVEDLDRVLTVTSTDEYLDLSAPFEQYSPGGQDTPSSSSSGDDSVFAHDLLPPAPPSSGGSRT

JNK activation (Western, anti-active JNK), lowest active concentration (FGF Receptor 1): < 12.5 ng/mL
JNK activation (Western, anti-active JNK), lowest active concentration (FGF Receptor 2): < 12.5 ng/mL
JNK activation (Western, anti-active JNK), lowest active concentration (FGF Receptor 3): < 12.5 ng/mL
Substance: wild type FGF-9 (ligand)
